Source: article PMC3861672

Molecular target: Fps1 (UniProt P23900)
Experiment: BiFC, split CFP
Settings: reference: no sorbitol

Substance: Hog1 (from UniProt P32485) 1 M sorbitol, 5 min
- other: percent of cells with detectable fluorescence: stronger; reference 27.6
